# Test results: patent US11065314B2, “Peptides and combination of peptides for use in immunotherapy against breast cancer and other cancers” (Immatics Biotechnologies GmbH, priority 2015, dated 2021)
# Square brackets hold non-standard residues; d marks the D form. Ends that are not written are not given here. pT = C[C@@H](OP(=O)(O)O)[C@H](N)C(=O)O
# System: CD8+ T cells of healthy HLA-A*02 donors
# Assay: In vitro T-cell priming (aAPC with pMHC and anti-CD28), pMHC multimer readout
# Format: cell-based, human
# Conditions: HLA class I peptides, Table 10A
# Excerpt: In order to obtain information regarding the immunogenicity of the TUMAPs of the present invention, the inventors performed investigations using an in vitro T-cell priming assay based on repeated stimulations of CD8+ T cells with artificial antigen presenting cells (aAPCs) loaded with peptide/MHC complexes and anti-CD28 antibody.
# In order to perform in vitro stimulations by artificial antigen presenting cells loaded with peptide-MHC complex (pMHC) and anti-CD28 antibody, the inventors first isolated CD8+ T cells from fresh HLA-A*02 leukapheresis products via positive selection using CD8 microbeads (Miltenyi Biotec, Bergisch-Gladbach, Germany) of healthy donors obtained from the University clinics Mannheim, Germany, after informed consent.
# PBMCs and isolated CD8+ lymphocytes were incubated in T-cell medium (TCM) until use consisting of RPMI-Glutamax (Invitrogen, Karlsruhe, Germany) supplemented with 10% heat inactivated human AB serum (PAN-Biotech, Aidenbach, Germany), 100 U/ml Penicillin/100 μg/ml Streptomycin (Cambrex, Cologne, Germany), 1 mM sodium pyruvate (CC Pro, Oberdorla, Germany), 20 μg/ml Gentamycin (Cambrex). 2.5 ng/ml IL-7 (PromoCell, Heidelberg, Germany) and 10 U/ml IL-2 (Novartis Pharma, Nümberg, Germany) were also added to the TCM at this step.
# Generation of pMHC/anti-CD28 coated beads, T-cell stimulations and readout was performed in a highly defined in vitro system using four different pMHC molecules per stimulation condition and 8 different pMHC molecules per readout condition.
# The purified co-stimulatory mouse IgG2a anti human CD28 Ab 9.3 (Jung et al., 1987) was chemically biotinylated using Sulfo-N-hydroxysuccinimidobiotin as recommended by the manufacturer (Perbio, Bonn, Germany). Beads used were 5.6 μm diameter streptavidin coated polystyrene particles (Bangs Laboratories, Illinois, USA).
# 800.000 beads/200 μl were coated in 96-well plates in the presence of 4×12.5 ng different biotin-pMHC, washed and 600 ng biotin anti-CD28 were added subsequently in a volume of 200 μl. Stimulations were initiated in 96-well plates by co-incubating 1×10^6 CD8+ T cells with 2×10^5 washed coated beads in 200 μl TCM supplemented with 5 ng/ml IL-12 (PromoCell) for 3 days at 37° C. Half of the medium was then exchanged by fresh TCM supplemented with 80 U/ml IL-2 and incubating was continued for 4 days at 37° C. This stimulation cycle was performed for a total of three times. For the pMHC multimer readout using 8 different pMHC molecules per condition, a two-dimensional combinatorial coding approach was used as previously described (Andersen et al., 2012) with minor modifications encompassing coupling to 5 different fluorochromes. Finally, multimeric analyses were performed by staining the cells with Live/dead near IR dye (Invitrogen, Karlsruhe, Germany), CD8-FITC antibody clone SK1 (BD, Heidelberg, Germany) and fluorescent pMHC multimers. For analysis, a BD LSRII SORP cytometer equipped with appropriate lasers and filters was used. Peptide specific cells were calculated as percentage of total CD8+ cells. Evaluation of multimeric analysis was done using the FlowJo software (Tree Star, Oregon, USA). In vitro priming of specific multimer+CD8+ lymphocytes was detected by comparing to negative control stimulations.
row,Sequence,"wells (in vitro immunogenicity, positive wells)"
1,"TLSSIKVEV (listed as Homo sapiens) [SEQ ID NO: 50, peptide useful for personalized cancer therapies, source gene MXRA5]",+ (<20% = +)

# Molecular target: HLA-A*02:01 (Homo sapiens, UniProt P04439, D140Y/D185E/D98H/E176V/E277Q/G131W/G231S/I119V/I121R/I166T/I218V/L300P/L318F/N151K/N90K/P208A/P217A/Q86G/Q94H/R138H/R169H/T345S)
# Assay: MHC binding assay: UV-ligand exchange with β2m ELISA
# Conditions: binding to HLA-A*02:01, UV-ligand exchange
# Excerpt: Candidate peptides for T cell based therapies according to the present invention were further tested for their MHC binding capacity (affinity). The individual peptide-MHC complexes were produced by UV-ligand exchange, where a UV-sensitive peptide is cleaved upon UV-irradiation, and exchanged with the peptide of interest as analyzed. Only peptide candidates that can effectively bind and stabilize the peptide-receptive MHC molecules prevent dissociation of the MHC complexes. To determine the yield of the exchange reaction, an ELISA was performed based on the detection of the light chain (β2m) of stabilized MHC complexes. The assay was performed as generally described in Rodenko et al. (Rodenko et al., 2006).
# 96 well MAXISorp plates (NUNC) were coated over night with 2 ug/ml streptavidin in PBS at room temperature, washed 4× and blocked for 1 h at 37° C. in 2% BSA containing blocking buffer. Refolded HLA-A*02:01/MLA-001 monomers served as standards, covering the range of 15-500 ng/ml. Peptide-MHC monomers of the UV-exchange reaction were diluted 100-fold in blocking buffer. Samples were incubated for 1 h at 37° C., washed four times, incubated with 2 ug/ml HRP conjugated anti-β2m for 1 h at 37° C., washed again and detected with TMB solution that is stopped with […]. Absorption was measured at 450 nm. Candidate peptides that show a high exchange yield (preferably higher than 50%, most preferred higher than 75%) are generally preferred for a generation and production of antibodies or fragments thereof, and/or T cell receptors or fragments thereof, as they show sufficient avidity to the MHC molecules and prevent dissociation of the MHC complexes.
row,Sequence,Peptide Exchange (peptide exchange yield)
1,"ALEEQLHQV (listed as Homo sapiens) [SEQ ID NO: 19, HLA-A*02 peptide, source genes KRT25, KRT28, KRT27]",“++” (≥20% = ++)
2,"ALNPVIYTV (listed as Homo sapiens) [SEQ ID NO: 5, HLA-A*02 peptide, source gene DRD4]",“++” (≥20% = ++)
3,"ALTALQNYL (listed as Homo sapiens) [SEQ ID NO: 6, HLA-A*02 peptide, source gene TFAP2B]",“+++” (≥50 = +++)
4,"FIIPTVATA (listed as Homo sapiens) [SEQ ID NO: 7, HLA-A*02 peptide, source gene ABCC11]",“++++” (≥75% = ++++)
5,"FMSKLVPAI (listed as Homo sapiens) [SEQ ID NO: 9, HLA-A*02 peptide, source gene TPRG1]",“+++” (≥50 = +++)
6,"GLHSLPPEV (listed as Homo sapiens) [SEQ ID NO: 10, HLA-A*02 peptide, source gene LRRC8E]",“+++” (≥50 = +++)
7,"GLLPTSVSPRV (listed as Homo sapiens) [SEQ ID NO: 11, HLA-A*02 peptide, source gene SCUBE2]",“++” (≥20% = ++)
8,"GLVQSLTSI (listed as Homo sapiens) [SEQ ID NO: 8, HLA-A*02 peptide, source gene ABCC11]",“++++” (≥75% = ++++)
9,"KAFPFYNTV (listed as Homo sapiens) [SEQ ID NO: 12, HLA-A*02 peptide, source gene NAIP]",“++” (≥20% = ++)
10,"KLYEGIPVL (listed as Homo sapiens) [SEQ ID NO: 13, HLA-A*02 peptide, source gene NEK10]",“++” (≥20% = ++)
11,"KQLELELEV (listed as Homo sapiens) [SEQ ID NO: 14, HLA-A*02 peptide, source gene MUC6]",“+++” (≥50 = +++)
12,"SLFPSLVVV (listed as Homo sapiens) [SEQ ID NO: 15, HLA-A*02 peptide, source gene PLEC]",“+++” (≥50 = +++)
13,"SLVEGEAVHLA (listed as Homo sapiens) [SEQ ID NO: 4, HLA-A*02 peptide, source genes TFAP2E, TFAP2A, TFAP2B, TFAP2C]",“++” (≥20% = ++)
14,"SMMGLLTNL (listed as Homo sapiens) [SEQ ID NO: 16, HLA-A*02 peptide, source gene ESR1]",“++++” (≥75% = ++++)
15,"TIASSIEKA (listed as Homo sapiens) [SEQ ID NO: 17, HLA-A*02 peptide, source gene STPG2]",“++” (≥20% = ++)
16,"YILLQSPQL (listed as Homo sapiens) [SEQ ID NO: 18, HLA-A*02 peptide, source gene MUC6]",“++++” (≥75% = ++++)

# Continued, values first:
row,Peptide Exchange (peptide exchange yield),Sequence
1,“+++” (≥50 = +++),"ALEAUQLYL (ALEA[pT]QLYL; listed as Homo sapiens) [SEQ ID NO: 29, HLA-A*02 peptide, source gene DEPDC4; U = phospho-threonine]"
2,“+++” (≥50 = +++),"FLDEEVKLI (listed as Homo sapiens) [SEQ ID NO: 43, HLA-A*02 peptide, source gene FTL]"
3,“++” (≥20% = ++),"FLSSEAANV (listed as Homo sapiens) [SEQ ID NO: 30, HLA-A*02 peptide, source gene TNFAIP2]"
4,“++++” (≥75% = ++++),"FLVEHVLTL (listed as Homo sapiens) [SEQ ID NO: 42, HLA-A*02 peptide, source gene printed 5LC39A6]"
5,“+++” (≥50 = +++),"FSFPVSVGV (listed as Homo sapiens) [SEQ ID NO: 20, HLA-A*02 peptide, source gene DUSP4]"
6,“++” (≥20% = ++),"GLSYIYNTV (listed as Homo sapiens) [SEQ ID NO: 31, HLA-A*02 peptide, source gene COG6]"
7,“+++” (≥50 = +++),"GLVATLQSL (listed as Homo sapiens) [SEQ ID NO: 32, HLA-A*02 peptide, source gene IFI6]"
8,“++” (≥20% = ++),"ILFDVVVFL (listed as Homo sapiens) [SEQ ID NO: 25, HLA-A*02 peptide, source gene C4orf3]"
9,“++” (≥20% = ++),"ILTELPPGV (listed as Homo sapiens) [SEQ ID NO: 33, HLA-A*02 peptide, source gene ZNF407]"
10,“++++” (≥75% = ++++),"KLLDMELEM (listed as Homo sapiens) [SEQ ID NO: 39, HLA-A*02 peptide, source gene FAH]"
11,“++++” (≥75% = ++++),"LLMUVAGLKL (LLM[pT]VAGLKL; listed as Homo sapiens) [SEQ ID NO: 38, HLA-A*02 peptide, source gene PCNXL3; U = phospho-threonine]"
12,“+++” (≥50 = +++),"SLAEPRVSV (listed as Homo sapiens) [SEQ ID NO: 27, HLA-A*02 peptide, source gene FASN]"
13,“+++” (≥50 = +++),"SLAWDVPAA (listed as Homo sapiens) [SEQ ID NO: 26, HLA-A*02 peptide, source gene FASN]"
14,“++++” (≥75% = ++++),"SLFSVPFFL (listed as Homo sapiens) [SEQ ID NO: 28, HLA-A*02 peptide, source gene TM9SF1]"
15,“++++” (≥75% = ++++),"SLLSEIQAL (listed as Homo sapiens) [SEQ ID NO: 35, HLA-A*02 peptide, source genes AKAP9, PCNT]"
16,“+++” (≥50 = +++),"SLNDQGYLL (listed as Homo sapiens) [SEQ ID NO: 41, HLA-A*02 peptide, source gene MCM8]"
17,“++++” (≥75% = ++++),"TLLGLAVNV (listed as Homo sapiens) [SEQ ID NO: 36, HLA-A*02 peptide, source gene CHPT1]"
